The values that follow come from patent publication US20190023809A1, “ANTI-NICOTINAMIDE PHOSPHORIBOSYLTRANSFERASE ANTIBODY GENES AND METHODS OF USE THEREOF” (The Children's Mercy Hospital, priority 2015, published 2019).

One data set relates to SP-B. Kind of data set: SP-B expression in H441 cells pretreated with FK866, without or with TNF-α (western blot). Type of data set: cell-based, human. The protocol:
FIG. 21 illustrates NAMPT inhibited SP-B expression via both its nonenzymatic and enzymatic activity. (A) H441 cells were transfected with either pCAGGS, pCAGGS-hNAMPT or pCAGGS-H247E. Cell lysate of NAMPT (10 μg), SP-B (30 μg) and GAPDH (10 μg) proteins were detected by western blot. Protein bands were quantified by densitometry using image J, and NAMPT levels (B) and SP-B levels (C) were normalized to GAPDH levels. Values are means±SD of 3 independent experiments. *p<0.05 vs. pCAGGS cells; #p<0.05 vs pCAGGS-hNAMPT cells. (D) H441 cells were pretreated with different doses of FK866 for 6 h before treatment without or with TNF-α (25 ng/ml) for 24 hours. Cell lysate of NAMPT (10 μg), SP-B (30 μg) and GAPDH (10 μg) proteins were detected by western blot. Protein bands were quantified by densitometry using image J, and NAMPT levels (E) and SP-B levels (F) were normalized to GAPDH levels. Values are means±SD of 3 independent experiments. *p<0.05 vs cells without FK866 or rhTNF-α treatment. #p<0.05 vs cells pretreated with FK866 but without rhTNF-α treatment;
This example determined that NAMPT inhibits SP-B expression mainly via its nonenzymatic activity and partly via its enzymatic activity. […]

The subject of another data set is CIA. Conditions: CIA mice; cited from earlier work.
For data set [1] the following is noted: cited from earlier work.
A further data set has as its system 3T3-L1 cells. Kind of data set: MTS / CellTiter 96 AQueous One cell proliferation assay in transfected 3T3-L1 cells. In kind it is cell-based, mouse. Conditions: for decreased proliferation as compared to the pCAGGS control population: fibroblasts, FIG. 1C; for proliferation of mouse 3T3: transfected cells, preliminary result. The method, then:
FIG. 1C is a graphic representation of the results of assay of cell proliferation of 3T3-L1 cells transfected with scFV1 and scFv2 or pCAGGS control. After 72 h, cell proliferation was assayed by CellTiter 96® AQueous One Solution Cell Proliferation Assay (Promega, cat #G3582). Values are means±SD, N=12, * p≤0.001;
(§1) In one embodiment of the present disclosure, as best shown in FIG. 1A, the cDNA for each single-chain variable fragment (scFv) antibody was cloned, including a histidine tag on the 3′ end, into the pCAGGS expression vector. The VH and VL fragments for each scFv are separated by a (G4S)3 linker and encode proteins of 247 and 249 amino acids, respectively for NAMPT-scFv1 (antibody 1 or Ab1) and scFv2 (antibody 2 or Ab2) (FIG. 1B). To test the anti-NAMPT ability of each construct, MTS assays were performed in transfected 3T3-L1 (ATCC CL-173™) and RAW 264.7 (ATCC® TIB-71™) cells.
We expressed and purified recombinant mouse NAMPT protein and obtained two human against mouse NAMPT antibody gene clones, termed NAMPT-scFv1 (Ab1) and -scFv2 (Ab2), by screening a HuScL-2™ Phage Display Naïve Human scFv Library (www.creative-biolabs.com/). We cloned the cDNAs for each scFv, including a histidine-tag on the 3′ end, into the pCAGGS expression vector. The VH and VL fragments for each scFv are separated by a (G4S)3 linker and encode proteins of 247 and 249 amino acids, respectively for NAMPT-scFv1 and -scFv2. To test the anti-NAMPT ability of each construct, we performed MTS assays in transfected 3T3-L1 (ATCC® CL-173™) and RAW 264.7 (ATCC® TIB-71™) cells. […] To increase the specificity of these constructs we generate a hetero-dimer and a hetero-tetramer using established procedures. The hetero-dimer [scFv1-scFv2], also called a di-body, is separated by a GGSSRSSSSGGGGSGGGG linker. The hetero-tetramer, also called a tetra-body, consists of two dimers [scFv1-scFv2]2 joined by the HIV1 P21 capsid protein linker, GATPQDLNTML. The P21 linker is an epitope for the murine monoclonal CB4-1 antibody. […] Thus, we utilize the CB4-1 antibody and nickel-columns (His-Tag) to manipulate and purify our recombinant scFv antibodies. We enhance the specificity and tertiary structures of the di-body and tetra-body by modifying the type and length of the linker sequences. Their antisense clone of NAMPT-scFv1 and -scFv2 is used as controls. Since similar effects in in vitro assay were observed, only NAMPT-scFv1 and its antisense clone are used to prepare the constructs under the control of either the human MRP8 promoter or mouse MPO promoter for tissue specific expression in neutrophils or neutrophils and monocytes, respectively.

The next data set relates to macrophage cell lines. Kind of data set: MTS proliferation assay in transfected macrophage cell lines (RAW 264.7). Conditions: data not shown. Type of data set: cell-based, mouse.
Source text: as §1
We expressed and purified recombinant mouse NAMPT protein and obtained two human against mouse NAMPT antibody gene clones, termed NAMPT-scFv1 (Ab1) and -scFv2 (Ab2), by screening a HuScL-2™ Phage Display Naïve Human scFv Library (www.creative-biolabs.com/). We cloned the cDNAs for each scFv, including a histidine-tag on the 3′ end, into the pCAGGS expression vector. The VH and VL fragments for each scFv are separated by a (G4S)3 linker and encode proteins of 247 and 249 amino acids, respectively for NAMPT-scFv1 and -scFv2. To test the anti-NAMPT ability of each construct, we performed MTS assays in transfected 3T3-L1 (ATCC® CL-173™) and RAW 264.7 (ATCC® TIB-71™) cells. […] To increase the specificity of these constructs we generate a hetero-dimer and a hetero-tetramer using established procedures. […]

In the next data set the test system is human a549 cell. Kind of data set: Proliferation of human a549 cell (data not shown). Type of data set: cell-based.
The subject of another data set is cell NAD synthesis. Briefly: NAD synthesis by transfected 3T3-L1 cells (Amplite Fluorimetric NAD/NADH Ratio Assay Kit). Type of data set: cell-based, mouse. The method, then: FIG. 1D is a graphic representation of the results of assay of NAD synthesis by 3T3-L1 cells transfected with scFv1 or pCAGGS control. After 72 h NAD synthesis was measured by Amplite™ Fluorimetric NAD/NADH Ratio Assay Kit (AAT Bioquest®, Inc. prod. number 15263). Values are means±SD, N=4, p≤0.005. Ab1, antibody 1; Ab2, antibody 2;
as §1

Data set [2] is described as follows: Cell culture experiments: cell death. In kind it is cell-based.
Source text: as §1

Regarding `O=C(/C=C/c1cccnc1)NCCCCC1CCN(C(=O)c2ccccc2)CC1` [FK866], the “rescue of TNF-α induced inhibition of SP-B” value with SP-B (FK866 6 h then TNF-α 25 ng/ml 24 hours) is “did not significantly rescue”. Besides, the SP-B expression entry with SP-B (FK866 pretreatment 6 h) is recorded as “increased”. The “severity and progression of arthritis” value with CIA is reported as “effectively reduce”. The “side effect in humans” value in data set [1] is “thrombocytopenia”.

B1: Ab1: anti-NAMPT single-chain variable fragment antibody clone, 247 amino acids, SEQ ID NO 1/2, in pCAGGS expression vector (protein, listed as Homo sapiens)
scFv: MEVQLLESGGGLVQPGGSLRLSCAASGFTFSSYAMSWVRQAPGKGLEWVSVINVPGNRTSYADSVKGRFTISRDNSKNTLYLQMNSLRAEDTAVYYCAKKTRRFDYWGQGTLVTVSSGGGGSGGGGSGGGGSTDIQMTQSPSSLSASVGDRVTITCRASQSISSYLNWYQQKPGKAPKLLIYGASVLQSGVPSRFSGSGSGTDFTLTISSLQPEDFATYYCQQRVRSPATFGQGTKVEIKRHHHHHH
modifications: (32)..(36) CDR1; (51)..(70) CDR2 scFv1; (99)..(105) CDR3 scFv1; (157)..(167) CDR4; (183)..(189) CDR5 scFv1; (224)..(230) CDR6 scFv1; (242)..(247) Histidine Tag
For the molecule B1, in the data set on 3T3-L1 cells, the “decreased proliferation as compared to the pCAGGS control population” value is on record as “about 50%” and the “proliferation of mouse 3T3” value is listed as “inhibit proliferation”. Further, the “proliferation of macrophage cell lines” value in the data set with macrophage cell lines is recorded as “inhibit proliferation”. The “proliferation of human a549 cell” value in the data set on human a549 cell is reported as “inhibited proliferation”. The “NAD synthesis, FIG. 1D values (Avg±SD)” value with cell NAD synthesis (3T3-L1 cells transfected, after 72 h, pCAGGS control, N=4) was 68.3%+10.4. Besides, the “cell NAD synthesis” value in the data set on cell NAD synthesis (transfected cells) is reported as “inhibited cell NAD synthesis”. Further, the cell death result in data set [2] is “induce cell death”.

B2: Ab2: anti-NAMPT single-chain variable fragment antibody clone, 249 amino acids, SEQ ID NO 3/4, in pCAGGS expression vector (protein, listed as Homo sapiens)
scFv: MEVQLLESGGGLVQPGGSLRLSCAASGFAFSSYAMSWVRQAPGKGLEWVSNISGRGAKTTYADSVKGRFTISRDNSKNTLYLQMNSLRAEDTAVYYCAKTYLVFDYWGQGTLVTVSSGGGGSGGGGSGGGGSTDIQMTQSPSSLSASVGDRVTITCRASQSISSYLNWYQQKPGKAPKLLIYRASSLQSGVPSRFSGSGSGTDFTLTISSLQPEDFATYYCQQISATPTTFGQGTKVEIKRAAHHHHHH
modifications: (32)..(36) CDR1; (41)..(60) CDR2 scFv2; (90)..(96) CDR3 scFv3; (108)..(122) 15-mer linker sequence; (147)..(157) CDR4; (173)..(180) CDR5 scFv2; (214)..(220) CDR6 scFv2; (234)..(239) Histidine Tag
With B2, the “cell proliferation, FIG. 1C values (Avg±SD)” value in the data set with 3T3-L1 cells (3T3-L1 cells transfected, after 72 h, pCAGGS control, N=12) worked out at 49.8%+4.6. For the same molecule, in the data set on 3T3-L1 cells, the “decreased proliferation as compared to the pCAGGS control population” value is on record as “about 50%” and the “proliferation of mouse 3T3” value is reported as “inhibit proliferation”. Further, the “proliferation of macrophage cell lines” value in the data set on macrophage cell lines is given as “inhibit proliferation”. Moreover, the “proliferation of human a549 cell” value in the data set on human a549 cell was “inhibited proliferation”. The cell death result in data set [2] is on record as “induce cell death”.
